US20180036395A1, “DOSAGE AND ADMINISTRATION OF MONOSPECIFIC AND BISPECIFIC ANTI-IGR-1R AND ANTI-ERBB3 ANTIBODIES” (Merrimack Pharmaceuticals, Inc., priority 2012, published 2018)

Assays:
Assay type in all cases: in vivo, human
[1] = system: Caki-1 renal cell carcinoma cancer cells; experiment: Caki-1 renal cell carcinoma xenograft study
Method: The y-axis represents mean tumor volume in mm^3 and the x-axis represents time in days.
For each of the xenograft studies below, cells are resuspended 1:1 with PBS:Growth factor-reduced Matrigel® and injected subcutaneously into Nu/Nu mice. Tumors are allowed to develop for 8 days. Antibodies are injected intraperitoneally every 3 days (q3d) at the indicated doses/mouse. Tumor lengths and widths are measured twice a week manually by caliper, and tumor volume calculated using the following formula: π/6(L×W^2). Each arm of a study contains 10 animals. All studies are carried out using methods approved by an internal IACUC panel. […]

[2] = system: hepatocellular carcinoma (HCC); experiment: Treatment of patients with hepatocellular carcinoma
Method: (§1) P4-G1-M1.3 is formulated in 20 mM histidine, 100 mM arginine-HCl, 3% sucrose, at pH 5.5 supplemented with 0.002-0.02% of Tween® 80 at concentration range 5-15 mg/mL. P4-G1-M1.3 is administered to patients at 6 mg/kg, 12 mg/kg, 20 mg/kg, 30 mg/kg, 40 mg/kg, 50 mg/kg or 60 mg/kg q7d, ql4d, q21d, or q28d with a loading dose of 12 mg/kg, 20 mg/kg, 40 mg/kg, 40 mg/kg or 60 mg/kg Everolimus is administered to patients at 2.5 mg, 5 mg, or 10 mg orally once a day or once every other day.
Patients with hepatocellular carcinoma (HCC) are treated with P4-G1-M1.3 monotherapy. Patients are dosed with P4-G1-M1.3 as described in Example 1 (second line in patients refractory to sorafenib). […] Preclinical data to support this example may be obtained using HepG2 cells in vitro and in vivo.
Patients with hepatocellular carcinoma (HCC) are treated with a combination of an effective amount of sorafenib and an effective amount of P4-G1-M1.3. Patients are dosed with P4-G1-M1.3 as described in Example 1. Patients are dosed with sorafenib at 400 mg daily. […] Preclinical data to support this example may be obtained using HepG2 cells in vitro and in vivo.

[3] = system: Ewing's sarcoma or metastatic pancreatic cancer; experiment: Treatment of patients with Ewing's sarcoma or metastatic pancreatic cancer; settings: irinotecan or nanoliposomal irinotecan + P4-G1-M1.3
Method: as §1
Patients with Ewing's sarcoma or metastatic pancreatic cancer are treated with a combination of an effective amount of irinotecan (Camptosar®) or nanoliposomal irinotecan and an effective amount of P4-G1-M1.3. P4-G1-M1.3 is formulated and administered as described above (e.g., Example 1). Nanoliposomal irinotecan is given i.v. at 80 mg/m^2 or 120 mg/m^2 q3w. Camptosar® is administered per manufacturer's directions.

B1: P4-G1-M1.3: anti-IGF-1R+anti-ErbB3 polyvalent bispecific antibody, IgG1-(scFv)2 (SEQ ID NO:148 and SEQ ID NO:149) (protein)
chain 1: EVQLLQSGGGLVQPGGSLRLSCAASGFLFSSYPMHWVRQAPGKGLEWVGSISPSGGATPYADSVKGRFTISRDNSKNTLYLQMNSLRPEDTAVYYCAKDFYNILTGNAFDKWGQGTSVTVSSASTGGGGSGGGGSGGGGSGGGGSDIQLTQSPSSLSASLGDRVTITCRASQGISSYLAWYQQKPGKAPKLLIYAGSTPQSGVPSRFSGSGSGTEFTLTISSLQPEDSGTYYCQQYWTWPLTFGGGTKVEIKRT
chain 2: EVQLVESGGGLVQPGRSLRLSCAASGFTFDDYAMHWVRQAPGKGLEWVSGISWNSGSTGYADSVKGRFTISRDNAKNSLYLQMNSLRAEDTALYYCARDLGYNQWLEGFDYWGQGTLVTVSSASTGGGGSGGGGSGGGGSGGGGSSSELTQDPAVSVALGQTVRITCQGDSLRSYYASWYQQKPGQAPVLVIYGKNNRPSGIPDRFSGSSSGNTASLTITGAQAEDEADYYCMSRDHPGNQWVFGGGTKVTVLG
modifications: Synthetic polypeptide:Anti-IGF-1R scFvs M76; Synthetic polypeptide:Anti-ErbB3 scFvs P6L
B1 was tested. Which “response to everolimus (tumor growth)” value ([1]; Caki-1 xenograft in Nu/Nu mice, 3mpk everolimus+500 μg P4-G1-M1.3, FIG. 1) did it give?
The value was “potentiates responses to everolimus”.

And the “tumor growth (mean tumor volume)” value ([1]; Caki-1 xenograft in Nu/Nu mice, P4-G1-M1.3 at 500, 300, or 100 μg, FIG. 1)?
The value was “suppresses tumor growth”.

What about the tumor growth ([1]; Caki-1 xenograft, Example 12) of the same molecule?
The tumor growth was “suppresses tumor growth”.

And the response to sirolimus ([1]; Caki-1 xenograft, combination with sirolimus)?
The response to sirolimus was “potentiates responses to sirolimus”.

What about the “HCC symptoms (e.g., time to progression or progression-free survival)” value ([2]; P4-G1-M1.3 monotherapy, second line in patients refractory to sorafenib, vs untreated historical controls or best supportive care) of the same molecule?
Its value is “statistically significant improvement in HCC symptoms”.

And the treatment outcome ([2]; patients with HCC, sorafenib 400 mg daily + P4-G1-M1.3)?
The treatment outcome was “combinatorially enhanced outcome”.

What about the treatment outcome [3] of the same molecule?
Its treatment outcome is “combinatorially enhanced outcome”.
